To fix the notation:
T1: Trop2 (human, UniProt P09758 27-323)
T1 sequence (looked up): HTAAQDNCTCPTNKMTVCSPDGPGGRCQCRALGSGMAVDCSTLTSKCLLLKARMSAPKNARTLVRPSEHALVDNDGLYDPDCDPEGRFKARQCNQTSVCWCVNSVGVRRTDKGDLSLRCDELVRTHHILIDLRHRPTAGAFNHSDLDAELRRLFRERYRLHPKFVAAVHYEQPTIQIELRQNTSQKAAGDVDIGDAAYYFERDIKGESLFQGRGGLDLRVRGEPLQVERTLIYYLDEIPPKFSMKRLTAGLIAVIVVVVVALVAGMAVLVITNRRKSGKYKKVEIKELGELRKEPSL

B1: ADC-1-2a (antibody, human IgG1, kappa, DAR 1.79)
heavy: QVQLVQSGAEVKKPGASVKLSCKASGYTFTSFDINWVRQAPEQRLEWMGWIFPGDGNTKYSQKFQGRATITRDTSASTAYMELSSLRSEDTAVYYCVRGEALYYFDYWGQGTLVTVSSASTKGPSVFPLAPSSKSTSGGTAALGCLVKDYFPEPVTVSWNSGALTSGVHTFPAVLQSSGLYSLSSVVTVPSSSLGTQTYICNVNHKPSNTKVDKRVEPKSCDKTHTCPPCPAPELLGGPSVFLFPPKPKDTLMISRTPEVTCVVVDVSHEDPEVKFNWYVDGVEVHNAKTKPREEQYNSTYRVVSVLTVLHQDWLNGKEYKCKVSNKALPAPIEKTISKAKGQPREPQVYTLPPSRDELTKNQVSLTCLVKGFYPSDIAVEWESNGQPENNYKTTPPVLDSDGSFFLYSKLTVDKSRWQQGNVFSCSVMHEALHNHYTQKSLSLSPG
light: DIQMTQSPSSLSASVGDRVTITCRASQDINKYLAWYQQKPGKVPKLLIYSTSTLQSGVPSRFSGSGSGTDFTLTISSLQPEDVATYYCLQYDDLFTFGQGTKLEIKRTVAAPSVFIFPPSDEQLKSGTASVVCLLNNFYPREAKVQWKVDNALQSGNSQESVTEQDSKDSTYSLSSTLTLSKADYEKHKVYACEVTHQGLSSPVCTKSFNRGEC
modifications: linker-payload LP-1a conjugated site-specifically after partial reduction (general step B), average DAR 1.79; chain and residue not stated
B2: ADC-C-2a (antibody, human IgG1, kappa, DAR 1.85)
heavy: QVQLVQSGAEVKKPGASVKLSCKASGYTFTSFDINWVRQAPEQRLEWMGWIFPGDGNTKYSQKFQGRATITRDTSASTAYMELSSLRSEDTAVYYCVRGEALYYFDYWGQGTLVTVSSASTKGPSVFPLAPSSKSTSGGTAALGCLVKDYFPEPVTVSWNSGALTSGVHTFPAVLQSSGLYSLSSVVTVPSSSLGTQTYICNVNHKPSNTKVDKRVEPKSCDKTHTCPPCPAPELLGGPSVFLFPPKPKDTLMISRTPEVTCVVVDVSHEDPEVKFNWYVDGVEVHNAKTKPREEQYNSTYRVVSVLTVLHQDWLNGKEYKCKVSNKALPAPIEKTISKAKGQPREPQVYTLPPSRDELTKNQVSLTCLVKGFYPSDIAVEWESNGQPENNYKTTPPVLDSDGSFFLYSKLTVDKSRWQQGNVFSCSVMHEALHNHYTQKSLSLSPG
light: DIQMTQSPSSLSASVGDRVTITCRASQDINKYLAWYQQKPGKVPKLLIYSTSTLQSGVPSRFSGSGSGTDFTLTISSLQPEDVATYYCLQYDDLFTFGQGTKLEIKRTVAAPSVFIFPPSDEQLKSGTASVVCLLNNFYPREAKVQWKVDNALQSGNSQESVTEQDSKDSTYSLSSTLTLSKADYEKHKVYACEVTHQGLSSPVCTKSFNRGEC
modifications: VcMMAE conjugated site-specifically after partial reduction (general step B), average DAR 1.85; chain and residue not stated
B3: ADC-2-2a (antibody, human IgG1, kappa, DAR 1.81)
heavy: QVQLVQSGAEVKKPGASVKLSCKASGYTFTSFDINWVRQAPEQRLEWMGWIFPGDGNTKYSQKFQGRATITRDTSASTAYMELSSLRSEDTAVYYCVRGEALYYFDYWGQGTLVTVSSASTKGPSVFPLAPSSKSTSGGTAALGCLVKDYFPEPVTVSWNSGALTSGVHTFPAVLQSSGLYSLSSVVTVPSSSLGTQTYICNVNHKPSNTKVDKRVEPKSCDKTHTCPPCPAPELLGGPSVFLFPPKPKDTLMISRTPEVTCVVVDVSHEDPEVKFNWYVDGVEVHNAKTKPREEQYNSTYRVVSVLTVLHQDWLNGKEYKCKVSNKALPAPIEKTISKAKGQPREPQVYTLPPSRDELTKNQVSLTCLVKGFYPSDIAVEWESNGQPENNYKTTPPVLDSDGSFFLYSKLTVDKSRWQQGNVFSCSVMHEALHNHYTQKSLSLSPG
light: DIQMTQSPSSLSASVGDRVTITCRASQDINKYLAWYQQKPGKVPKLLIYSTSTLQSGVPSRFSGSGSGTDFTLTISSLQPEDVATYYCLQYDDLFTFGQGTKLEIKRTVAAPSVFIFPPSDEQLKSGTASVVCLLNNFYPREAKVQWKVDNALQSGNSQESVTEQDSKDSTYSLSSTLTLSKADYEKHKVYACEVTHQGLSSPVCTKSFNRGEC
modifications: linker-payload LP-2a conjugated site-specifically after partial reduction (general step B), average DAR 1.81; chain and residue not stated
B4: ADC-1-1a (antibody, human IgG1, kappa, DAR 7.59)
heavy: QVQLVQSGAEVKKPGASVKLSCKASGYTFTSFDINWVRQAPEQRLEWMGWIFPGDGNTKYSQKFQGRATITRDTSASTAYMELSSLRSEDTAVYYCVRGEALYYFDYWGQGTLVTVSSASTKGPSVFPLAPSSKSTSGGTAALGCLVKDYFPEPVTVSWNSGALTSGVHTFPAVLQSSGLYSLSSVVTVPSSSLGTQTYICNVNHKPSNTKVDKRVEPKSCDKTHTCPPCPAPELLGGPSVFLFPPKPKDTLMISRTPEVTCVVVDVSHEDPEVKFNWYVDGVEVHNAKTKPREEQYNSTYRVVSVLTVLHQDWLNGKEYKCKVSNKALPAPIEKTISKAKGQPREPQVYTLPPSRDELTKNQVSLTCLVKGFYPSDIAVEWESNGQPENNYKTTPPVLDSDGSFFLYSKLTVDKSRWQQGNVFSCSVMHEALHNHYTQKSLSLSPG
light: DIQMTQSPSSLSASVGDRVTITCRASQDINKYLAWYQQKPGKVPKLLIYSTSTLQSGVPSRFSGSGSGTDFTLTISSLQPEDVATYYCLQYDDLFTFGQGTKLEIKRTVAAPSVFIFPPSDEQLKSGTASVVCLLNNFYPREAKVQWKVDNALQSGNSQESVTEQDSKDSTYSLSSTLTLSKADYEKHKVYACEVTHQGLSSPVTKSFNRGEC
modifications: linker-payload LP-1a on a cysteine thiol of the reduced interchain disulfide (general step A); residue not stated; linker-payload LP-1a (auristatin E derivative) on cysteine thiols of the fully reduced interchain disulfides (general step A); residues not stated; average DAR 7.59
B5: ADC-C-1a (antibody, human IgG1, kappa, DAR 7.34)
heavy: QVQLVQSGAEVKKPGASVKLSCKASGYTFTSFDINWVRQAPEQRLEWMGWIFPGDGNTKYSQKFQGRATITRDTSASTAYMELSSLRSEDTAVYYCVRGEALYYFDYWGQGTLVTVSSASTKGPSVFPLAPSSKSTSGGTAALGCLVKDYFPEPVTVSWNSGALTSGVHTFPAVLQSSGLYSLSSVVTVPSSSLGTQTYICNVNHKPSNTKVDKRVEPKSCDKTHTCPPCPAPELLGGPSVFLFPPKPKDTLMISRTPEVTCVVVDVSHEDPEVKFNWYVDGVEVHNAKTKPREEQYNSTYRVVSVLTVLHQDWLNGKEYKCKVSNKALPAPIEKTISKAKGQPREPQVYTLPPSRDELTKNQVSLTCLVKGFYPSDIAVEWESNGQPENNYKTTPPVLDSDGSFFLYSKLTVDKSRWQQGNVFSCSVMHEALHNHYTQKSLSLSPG
light: DIQMTQSPSSLSASVGDRVTITCRASQDINKYLAWYQQKPGKVPKLLIYSTSTLQSGVPSRFSGSGSGTDFTLTISSLQPEDVATYYCLQYDDLFTFGQGTKLEIKRTVAAPSVFIFPPSDEQLKSGTASVVCLLNNFYPREAKVQWKVDNALQSGNSQESVTEQDSKDSTYSLSSTLTLSKADYEKHKVYACEVTHQGLSSPVTKSFNRGEC
modifications: VcMMAE on a cysteine thiol of the reduced interchain disulfide (general step A); residue not stated; VcMMAE (MC-VC-PAB-MMAE) on cysteine thiols of the fully reduced interchain disulfides (general step A); residues not stated; average DAR 7.34
B6: ADC-2-1a (antibody, human IgG1, kappa, DAR 7.31)
heavy: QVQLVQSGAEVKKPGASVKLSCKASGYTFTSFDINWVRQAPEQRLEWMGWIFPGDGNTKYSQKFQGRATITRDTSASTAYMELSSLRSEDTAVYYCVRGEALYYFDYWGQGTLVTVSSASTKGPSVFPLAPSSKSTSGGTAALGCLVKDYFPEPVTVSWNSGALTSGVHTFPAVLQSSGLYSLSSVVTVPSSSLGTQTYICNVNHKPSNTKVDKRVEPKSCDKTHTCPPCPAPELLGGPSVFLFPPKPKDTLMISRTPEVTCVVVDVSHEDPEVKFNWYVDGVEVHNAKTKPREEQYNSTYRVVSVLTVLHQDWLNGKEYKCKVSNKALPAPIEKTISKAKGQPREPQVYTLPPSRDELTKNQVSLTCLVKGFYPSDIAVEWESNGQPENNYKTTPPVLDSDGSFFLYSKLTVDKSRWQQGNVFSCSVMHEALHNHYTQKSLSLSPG
light: DIQMTQSPSSLSASVGDRVTITCRASQDINKYLAWYQQKPGKVPKLLIYSTSTLQSGVPSRFSGSGSGTDFTLTISSLQPEDVATYYCLQYDDLFTFGQGTKLEIKRTVAAPSVFIFPPSDEQLKSGTASVVCLLNNFYPREAKVQWKVDNALQSGNSQESVTEQDSKDSTYSLSSTLTLSKADYEKHKVYACEVTHQGLSSPVTKSFNRGEC
modifications: one linker-payload LP-2a on each light chain, maleimide partly ring-opened; residue not stated; linker-payload LP-2a (MMAE derivative) on cysteine thiols of the fully reduced interchain disulfides (general step A); residues not stated; average DAR 7.31

The text below walks through data of patent publication EP4595979A1 (SystImmune, Inc., dated 2024).

This assay has as its target T1, Trop2. In words: cell-based or functional assay.
For B1, the “IC50 (nM), in vitro cytotoxicity (120h), MTS cell viability, A431 cells (Trop2 positive)” value (from here on “IC50 (nM) … A431 cells (Trop2 positive)”) was 0.05 nM; the “IC50 (nM), in vitro cytotoxicity (120h), MTS cell viability, BxPC-3 cells (Trop2 positive)” value (from here on “IC50 (nM) … BxPC-3 cells (Trop2 positive)”) was 0.25 nM; the “IC50 (nM), in vitro cytotoxicity (120h), MTS cell viability, NCI-N87 cells (Trop2 positive)” value (“IC50 (nM) … NCI-N87 cells (Trop2 positive)” below) worked out at 2.6 nM.
As for B2, the “IC50 (nM) … A431 cells (Trop2 positive)” value is 0.32 nM; the “IC50 (nM) … BxPC-3 cells (Trop2 positive)” value came out at 0.87 nM; the “IC50 (nM) … NCI-N87 cells (Trop2 positive)” value stood at 4.9 nM.
As for B3, the “IC50 (nM) … A431 cells (Trop2 positive)” value turned out to be 0.11 nM; the “IC50 (nM) … BxPC-3 cells (Trop2 positive)” value is 0.46 nM; the “IC50 (nM) … NCI-N87 cells (Trop2 positive)” value is 4.7 nM.
In the same order, the values of B4 are 0.01 nM, 0.02 nM and 0.36 nM.
In the case of B5, the “IC50 (nM) … A431 cells (Trop2 positive)” value was found to be 0.02 nM; the “IC50 (nM) … BxPC-3 cells (Trop2 positive)” value was found to be 0.04 nM; the “IC50 (nM) … NCI-N87 cells (Trop2 positive)” value is 0.63 nM.
Regarding B6, the “IC50 (nM) … A431 cells (Trop2 positive)” value is 0.005 nM; the “IC50 (nM) … BxPC-3 cells (Trop2 positive)” value amounted to 0.02 nM; the “IC50 (nM) … NCI-N87 cells (Trop2 positive)” value amounted to 0.35 nM.
